Measurements published in US20260209316A1 (US Dept. of Health and Human Services, published 2026).
Where two headings read alike, the source gives them in different places.

How the values were obtained:
[1] = target: T1, mucin domain-deleted Sudan GP (GPdMuc) (Sudan virus (SUDV), UniProt Q7T9D9 33-632); assay: BLI competition on Sudan GPdMuc (lower table); competitor 15H10
T1 construct: also called Sudan GPdMuc; GP(S)dMuc

[2] = target: T1, mucin domain-deleted Sudan GP (GPdMuc); assay: ELISA on coated GP
[3] = target: T1, mucin domain-deleted Sudan GP (GPdMuc); assay: BLI competition on Sudan GPdMuc (lower table); competitor mAb166
[4] = target: T1, mucin domain-deleted Sudan GP (GPdMuc); assay: BLI competition on Sudan GPdMuc (lower table); competitor 316L
[5] = target: T1, mucin domain-deleted Sudan GP (GPdMuc); assay: BLI competition on Sudan GPdMuc (lower table); competitor 16F6
[6] = target: T1, mucin domain-deleted Sudan GP (GPdMuc); assay: BLI competition on Sudan GPdMuc (upper table); competitor 316L
[7] = target: T1, mucin domain-deleted Sudan GP (GPdMuc); assay: BLI competition on Sudan GPdMuc (upper table); competitor 16F6
[8] = target: T1, mucin domain-deleted Sudan GP (GPdMuc); assay: BLI competition on Sudan GPdMuc (upper table); competitor mAb166
[9] = target: T1, mucin domain-deleted Sudan GP (GPdMuc); assay: ELISA on coated GP; remark: listed apart in the source
[10] = target: T1, mucin domain-deleted Sudan GP (GPdMuc); assay: BLI competition on Sudan GPdMuc (upper table); competitor 15H10
[11] = target: T2, mucin domain-deleted Zaire GP (GPdMuc) (Ebola (Zaire) virus (EBOV), UniProt Q05320 33-632); assay: BLI, Fab, pH 7.4
T2 construct: also called Zaire GPdMuc; GP(Z)dMuc

[12] = target: T1, mucin domain-deleted Sudan GP (GPdMuc); assay: BLI, Fab, pH 7.4
[13] = target: T1, mucin domain-deleted Sudan GP (GPdMuc); assay: BLI, Fab, pH 5.3

Binder	% inhibition of binding [1]	EC50 [2]	% inhibition of binding [3]	% inhibition of binding [4]	% inhibition of binding [5]	% inhibition of binding [6]	% inhibition of binding [7]	% inhibition of binding [8]	EC50 [9]	% inhibition of binding [10]	also measured
antibody 233S (antibody, V domains shown) VH: EVQLVESGGGLGQPGGSLRLSCAASGFKFKIFGMNWVRQAPGKGLEWVSYISSRSSIIYYADSVKGRFTISRDDATNSLFLQMNSLRDEDTAMYYCVRDYNLIDFVWGSLFDYWGQGILVTVSS VL: AIRMTQSPSSLSASTGDSVTITCRASQNIASYLAWYQQIPGKAPKLLIYVASTLQSGVPSRFSGSGSGTDFTLTISSLQSEDFATYYCQQYYRYPPTFGQGTKVEIK	29.6%	0.195 µg/mL	14.4%	12.5%	22.9%	–	–	–	–	–	–
antibody 503S (antibody, V domains shown) VH: QVQLVQSGAEVKKPGASVRVSCKASGYTFTSYYMHWVRQAPGQGLEWMGQINPSGGTTRYERKFQGRITVTRDTSTSTVYLELSSLRSEDTASYFCACLRDKVTYYDLWSGVDSVWGQGTLVTVSS VL: DIQMTQSPSSLSASVGDRVTITCRASQDISTWLAWYQQKPEKAPKSLIYAASTLETGVPSRFSGSGSGTDFTLTISSLQPEDFATYYCEQYNGFPRTFGQGTKLDIK	27.8%	0.499 µg/mL	20.7%	23.3%	24.9%	–	–	–	–	–	–
antibody 294S (antibody, V domains shown) VH: QVQLQESGPGLVKPSQTLSLTCTVSGGSISSGGYHWSWIRQHPGKGLEWIGNIYYNGRTYYNPSLKSRVTISVDTSENEFSLKLSSVTAADTAVYYCARDRRRPRIGHDYGMDVWGQGTKVIVSS VL: DIQMTQSPSSLSASVGDRVTISCRASQSISNFLNWYQQKPGQAPKLLIYTASNLQSGVPSRFSGSGSGTDFTLTISSLQPEDFATYYCQQIYNTGMYSFGQGTKLEIKR	15.7%	0.0266 µg/mL	9.71%	8.76%	13.3%	–	–	–	–	–	–
antibody 241S (antibody, V domains shown) VH: QVQLVQSGSELKKPGASVKVSCKASGYTFTSYTVNWVRQAPGQGLEWMGWINTNTGNPTYAQGFTGRFVFSSDTSVSTAYLQISDLKAEDTAMYYCARHVAYDLWSGHTVTFDHWGQGTLVTVSS VL: QSALTQPPSASGSPGQSVTISCTGTSSDVGAYNYVSWYQQHPGKAPKLIIYEVTKRPSGVPDRFSGSKSGNTASLTVSGLQAEDEADYYCSSKAGGKTYVFGTGTKVTVL	38.3%	0.331 µg/mL	10.1%	10.3%	28.2%	–	–	–	–	–	–
antibody 354S (antibody, V domains shown) VH: QVQLVQSGAEVKKPGASVKVSCKASGYSFASYYIHWVRQAPGQGLEWMGIINPSGGTTSYAQKFQGRVTMTRDTSTSTVYMELSSLGSEDTAVYYCARIVDRVTIYLNGVDNYWGQGTLVTVSS VL: EIVMTQSPATLSVSPGERVTLSCRASQSVSSNLAWFQQTPGQAPRLLIYGASTRASGVPARFSGSGSGTEFTLTISSLQSEDFAVYYCLQYNNWPPGWKYGFGQGTKLEIK	18.9%	0.0404 µg/mL	16.2%	17.9%	18.7%	–	–	–	–	–	–
antibody 203S (antibody, V domains shown) VH: QVQLVQSGAEVKKPGSSVKVSCKASGGTFSSYAISWVRQAPGQGLEWLGRILPALGLANYAQKYQDRVKITADKSTSTAYMELSRLGSEDTAVYYCARDRWVGAARRGQYFDYWGQGTQVTVSS VL: DIQMTQSPATLSASVGDRVTITCRASQSIGTWLAWYQQKPGKAPKLLIYDASSLESGVPPRFSGSGSETEFTLTISSLQPDDFATYYCHQYKSYSYTFGQGTKLEIK	–	–	–	–	–	10.3%	10.8%	87.5%	0.57 µg/mL	13.4%	–
antibody 315S (antibody, V domains shown) VH: EVQLVESGGGVVQPGRSLRLSCAASGFTFKTYTMHWVRQAPGKGLEWVAVITDDGVNKKYADSVKGRFTISRDNSKNTLYLQMNSLRLEDTAVYYCARSVVVLAAYPLDYWGQGTMVTVSS VL: DIQMTQSPSSLSASVGDRVTITCRASQTISTYLHWYQQRPGKAPKLLIYAASSLQSGVPSRVSGSGSGTDFTLTITSLQPEDFATYYCLQTYSLPLTFGGGTNVEIK	–	–	–	–	–	0.7%	17.9%	-2.64%	0.01 µg/mL	6.61%	–
antibody 377S (antibody, V domains shown) VH: QVQLVQSGAEVKKPGSSVKVSCKASGGTFSNYAINWVRQAPGQGLEWMGRTIPFLGLTNYAENFQARVTITADKSTGTSYMQLSSLRSEDTAVYFCAKAATSGWSPFDNWGQGTLVTVSS VL: EIVLTQSPGTLSLSPGERATLSCRASQSISSSYFGWYQQKPGQAPRLLIYGASRRAAGIPDRFSCSGSGTDFTLTISRLEPEDFGVYYCQQYGSSPTFGQGTKVEIK	–	–	–	–	–	39.4%	9.63%	83.8%	0.86 µg/mL	12.1%	–
antibody 528S (antibody, V domains shown) VH: EVQLAESGGGVVQPGRSLRLSCAASGFTFNSYGMHWVRQAPGKGLEWVAVIWDDGSKKYYADSVKGRFTISRDNSKNTLFLQMNSLRAEDTAVYYCARETIMFTFGEVIVSSRDNYYMDVWGKGTTVTVSS VL: EIVLTQSPATLSLSPGERATLSCRASQSVSNYLAWYQQKPGQAPRLLIYDASTRAIGIPARFSGVGSGTDFTLTISSLEPEDFAVYYCQQRSNWPPLTFGGGTKVEIK	–	–	–	–	–	8.13%	13.2%	82%	0.03 µg/mL	14.7%	–
antibody 338S (antibody, V domains shown) VH: EVQLVESGGGVVQPGRSLRLSCAASGFTFSQYGMHWVRQAPGKGLECVAVIWFDGSKKYYGDSVKGRFTISRDNSKNTLYLQMNSLRAEDTAVYFCARESLYYYDSGGHYYERGRIDYWGQGTLVTVSS VL: DIQMTQSPSSLSASVGDRVTITCRASQDISNFLAWFQQKPGKAPKSLIYAASSLLSGVPSKFSGSGSGTDFTLTISSLQPEDFATYYCQQYNSYPPTFGQGTKLEIK	–	–	–	–	–	0.2%	3.74%	-6.27%	0.02 µg/mL	4.35%	–
Fab generated from 316L (Fab, V domains shown, also called 316L Fab) VH: EERLVESGGGLVQPGGSLRLSCAASGFTFGDYAMHWVRQVPGKSLEWLSGISWSGYTTYSADSVKGRFTISRDNAKNSLYLQMNRLRPEDTGLYYCVTLIGAIGIKDSLDVWGRGVLVTVSS VL: QSVLTQPPSVSGAPGQRVTVSCSGSSSNIGAGNYVQWYQQLPGTAPKVLIYQTEKRPSGTSDRFSGSKSDTSASLTINGLQSEDEADYYCQVYDSNLNGWVFGGGTRLTVL	–	–	–	–	–	–	–	–	–	–	Kd [11]: 13.3 nM; koff [11]: 0.0015 s⁻¹; kon [11]: 115000 M⁻¹ s⁻¹; Kd [12]: 0.372 nM; koff [12]: 5.38e-05 s⁻¹; kon [12]: 145000 M⁻¹ s⁻¹; Kd [13]: 0.46 nM; koff [13]: 5.26e-05 s⁻¹; kon [13]: 112000 M⁻¹ s⁻¹
Fab generated from 380L (Fab, V domains shown, also called 380L Fab) VH: EVQLVESGGGLVQPGGSLTLSCAASGFTFGDYVMHWVRQVPGRGLEWLSAVSWSGYTTYSADSVKGRFTISRDNAKNSLYLQMSRLGTADTGLYYCVTLIGAIGIRDSFDAWGRGVLVTVSS VL: QSVLTQPPSMSGAPGQRVTVSCTGSSSNIGAGNYVQWYQQLPGTAPKVLIYQTDKRPSGISDRFSGSKSGTSASLTISGLQSEDEADYYCQVYDSSLNGWVFGGGTRLTVL	–	–	–	–	–	–	–	–	–	–	Kd [11]: 6.64 nM; koff [11]: 0.000778 s⁻¹; kon [11]: 118000 M⁻¹ s⁻¹; Kd [12]: 0.567 nM; koff [12]: 9.54e-05 s⁻¹; kon [12]: 168000 M⁻¹ s⁻¹; Kd [13]: 0.64 nM; koff [13]: 0.000109 s⁻¹; kon [13]: 172000 M⁻¹ s⁻¹
